Paper PMC2891831, “Insight into the Mechanisms of Adenovirus Capsid Disassembly from Studies of Defensin Neutralization” (PLoS Pathogens, 2010)

Test system: Ad5.eGFP
Assay: Ad5.eGFP infection, eGFP-positive cells by flow cytometry
Type: cell-based, human adenovirus
Details: 15 µM defensin, percent eGFP positive cells vs. no defensin, at least three independent experiments
From the text: To gain further insight into the defensin-HAdV interaction, we assessed the requirement for two conserved structural elements on the anti-AdV activity of HD5. All defensins have three disulfide bonds (Figure 3A). […] The antibacterial properties of defensins, which are dependent upon protein-lipid interactions, are not uniformly conformation dependent [27]–[29]. […] In contrast, defensin-related chemokine activity, which relies on protein-protein interactions, is dependent on defensin conformation. We hypothesized that the defensin-capsid interaction for sensitive serotypes would likely be dependent upon defensin conformation, as this would be more typical for protein-protein interactions. […]
Figure 3 HD5 antiviral activity is structure dependent. […] C) Binding of Alexa Fluor 488-labeled HAdV-5 to cells was assessed after incubation with or without 20 µM HD5 or HD5-Abu and in competition with 100 nM 5FK or 16 FK. Data are the mean fold increase in geometric mean fluorescence compared to cells alone and are of at least 10,000 cells from each of three independent experiments ± SD.
To test the activity of HD5 derivates, Ad5.eGFP was incubated with 15 µM of HD5, HD5-Abu, or HD5-E14Q. Infectivity was assessed by enumerating eGFP-positive cells by flow cytometry as described.

B1: HD5: human alpha-defensin; synthetic, obtained from Peptides International; three disulfide bonds (PDB 1ZMP) (peptide, UniProt Q01523 20-94, looked up)
Defensin alpha 5: ESLQERADEATTQKQSGEDNQDLAISFAGNGLSALRTSGSQARATCYCRTGRCATRESLSGVCEISGRLYRLCCR
modifications: Defensin-5
Question: B1 was tested. Which “antiviral activity against Ad5.eGFP” value did it give?
Answer: only correctly folded HD5 has antiviral activity
